Results published in article PMC12102759.

B1: KIAA1671 peptide 600-615 (Uncharacterized protein KIAA1671), 16-mer library wild type / MDM2 SWIB (MDM2 SWIB/MDM2 domain, residues 17-125) (parent)
chain 1: TPEDDRSFQTVWATVF
chain 2: SQIPASEQETLVRPKPLLLKLLKSVGAQKDTYTMKEVLFYLGQYIMTKRLYDEKQQHIVYCSNDLLGDLFGVPSFSVKEHRKIYTMIYRNLVVVNQQESSDSGTSVSEN
B2: SH3BP2 peptide 408-423 (SH3 domain-binding protein 2), 16-mer library wild type / TNKS ANK (TNKS 12 ANK repeats, residues 174-649) (parent)
chain 1: PQLPHLQRSPPDGQSF
chain 2: TGVPAVSGALRELLEACRNGDVSRVKRLVDAANVNAKDMAGRKSSPLHFAAGFGRKDVVEHLLQMGANVHARDDGGLIPLHNACSFGHAEVVSLLLCQGADPNARDNWNYTPLHEAAIKGKIDVCIVLLQHGADPNIRNTDGKSALDLADPSAKAVLTGEYKKDELLEAARSGNEEKLMALLTPLNVNCHASDGRKSTPLHLAAGYNRVRIVQLLLQHGADVHAKDKGGLVPLHNACSYGHYEVTELLLKHGACVNAMDLWQFTPLHEAASKNRVEVCSLLLSHGADPTLVNCHGKSAVDMAPTPELRERLTYEFKGHSLLQAAREADLAKVKKTLALEIINFKQPQSHETALHCAVASLHPKRKQVTELLLRKGANVNEKNKDFMTPLHVAAERAHNDVMEVLHKHGAKMNALDTLGQTALHRAALAGHLQTCRLLLSYGSDPSIISLQGFTAAQMGNEAVQQILSESTPIRTSD
B3: AMOTL2 peptide 66-81 (Angiomotin-like protein 2), 16-mer library wild type / TNKS ANK (TNKS 12 ANK repeats, residues 174-649) (parent)
chain 1: LQQATRQEPQGQEHQG
chain 2: B2 chain 2
B4: PEX5 peptide 108-123 (Peroxisomal targeting signal 1 receptor), 16-mer library wild type / PEX14 Pex14 (PEX14 PEX14, residues 16-84) (parent)
chain 1: GVADLALSENWAQEFL
chain 2: TPGSENVLPREPLIATAVKFLQNSRVRQSPLATRRAFLKKKGLTDEEIDMAFQQSGTAADEPSSLGPAT

Variants of: B1
Assay: proteomic peptide phage display deep mutational scan (ProP-PD DMS): M13 P8 16-mer library selected against immobilised GST-tagged bait for four days (rounds), NGS of the eluted pools per day and pseudo-replica
Conditions: with MDM2 SWIB (MDM2 SWIB/MDM2 domain, residues 17-125); bait immobilised on MaxiSorp plates (10 µg), library pre-cleared on GST, 2 h binding at 4 °C, five washes; one round per day, days 1-4; value from days 2 and 3; keep out of graded; scale: average fractional NGS count over selection days 2 and 3
In the case of chain 1 T10W, the screen value is reported as 0.000295. For chain 1 T10Y, the screen value was 0.000166. For chain 1 T14A, the screen value was 2.89e-05. chain 1 T14D was tested, and the screen value was 9.35e-05. chain 1 T14E was tested, and the screen value was 0.000268. For chain 1 T14G, the screen value was 5.64e-05. chain 1 T14H showed a screen value of 4.28e-05. With chain 1 T14I the screen value was 3.81e-05. chain 1 T14M was tested, and the screen value was 0.00063. chain 1 T14N showed a screen value of 0.000664. Work on chain 1 T14Q yielded a screen value of 3.86e-05. With chain 1 T14R the screen value was 0.00282. With chain 1 T14S the screen value was 0.000516. Work on chain 1 T14V yielded a screen value of 1.9e-05. chain 1 T14W showed a screen value of 0.000103. chain 1 T14Y was tested, and the screen value was 0.000108. With chain 1 V11A the screen value was 0. In the case of chain 1 V11E, the screen value is reported as 0. chain 1 V11F was tested, and the screen value was 0.000216. In the case of chain 1 V11H, the screen value is reported as 0.0015. Variant chain 1 V11I has a screen value of 0.00157. With chain 1 V11L the screen value was 0.000339. For chain 1 V11M, the screen value was 0.000226. For chain 1 V11N, the screen value was 0. With chain 1 V11Q the screen value was 0.00061. In the case of chain 1 V11T, the screen value is reported as 0. chain 1 V11W showed a screen value of 0.00167. chain 1 V11Y showed a screen value of 0.000214. Variant chain 1 V15A has a screen value of 0.000191. chain 1 V15F showed a screen value of 0.000104. chain 1 V15G showed a screen value of 0. For chain 1 V15M, the screen value was 8.76e-05. chain 1 V15N was tested, and the screen value was 0. Variant chain 1 V15P has a screen value of 0. For chain 1 V15S, the screen value was 2.82e-05. chain 1 V15W was tested, and the screen value was 0.000109. Variant chain 1 W12D has a screen value of 0. For chain 1 W12K, the screen value was 9.9e-05. With chain 1 W12N the screen value was 0. In the case of chain 1 W12R, the screen value is reported as 0. In the case of chain 1 W12T, the screen value is reported as 9.54e-05.

Variants of: B2
Assay: as above
Conditions: with TNKS ANK (TNKS 12 ANK repeats, residues 174-649); bait immobilised on MaxiSorp plates (10 µg), library pre-cleared on GST, 2 h binding at 4 °C, five washes; one round per day, days 1-4; value from days 2 and 3; keep out of graded; scale: average fractional NGS count over selection days 2 and 3
In the case of chain 1 D12F, the screen value is reported as 0. For chain 1 D12H, the screen value was 5.06e-05. chain 1 D12P was tested, and the screen value was 4.27e-05. With chain 1 D12T the screen value was 6.11e-05. chain 1 D12Y gave a screen value of 3.32e-05. chain 1 F16K gave a screen value of 4.17e-05. Variant chain 1 F16S has a screen value of 9.92e-05. In the case of chain 1 G13A, the screen value is reported as 0. chain 1 G13Q gave a screen value of 0. In the case of chain 1 G13W, the screen value is reported as 0. chain 1 H5A showed a screen value of 0.000105. In the case of chain 1 H5D, the screen value is reported as 5.12e-05. chain 1 H5E showed a screen value of 9.9e-05. chain 1 H5L gave a screen value of 0.000101. Work on chain 1 H5M yielded a screen value of 6.6e-05. In the case of chain 1 H5N, the screen value is reported as 3.1e-05. chain 1 H5W showed a screen value of 7.66e-05. In the case of chain 1 L3D, the screen value is reported as 9.07e-05. Work on chain 1 L3G yielded a screen value of 6.04e-05. In the case of chain 1 L3W, the screen value is reported as 5.02e-05. In the case of chain 1 L6I, the screen value is reported as 6.25e-05. Variant chain 1 L6K has a screen value of 8.36e-05. In the case of chain 1 P4F, the screen value is reported as 5.23e-05. chain 1 P4K was tested, and the screen value was 0.000103. In the case of chain 1 P4R, the screen value is reported as 3.21e-05. Variant chain 1 P10M has a screen value of 0.000103. For chain 1 P10R, the screen value was 5.9e-05. For chain 1 P11E, the screen value was 0. chain 1 P11F showed a screen value of 3.04e-05. chain 1 P11H was tested, and the screen value was 0. chain 1 P11I showed a screen value of 0. Work on chain 1 P11L yielded a screen value of 0. chain 1 P11M showed a screen value of 0. chain 1 P11Q gave a screen value of 0. chain 1 P11S was tested, and the screen value was 2.19e-05. For chain 1 P11T, the screen value was 7.13e-05. For chain 1 Q2W, the screen value was 3.04e-05. Variant chain 1 Q7N has a screen value of 0.000104. chain 1 Q7P showed a screen value of 3e-05. chain 1 Q7R gave a screen value of 0.000135. With chain 1 Q14D the screen value was 6.15e-05. For chain 1 Q14P, the screen value was 3.92e-05. Work on chain 1 Q14W yielded a screen value of 0.000114. Work on chain 1 R8A yielded a screen value of 0. With chain 1 R8F the screen value was 0. Work on chain 1 R8H yielded a screen value of 0. Work on chain 1 R8S yielded a screen value of 8.91e-05. With chain 1 R8W the screen value was 0. chain 1 R8Y showed a screen value of 0. For chain 1 S9G, the screen value was 7.17e-05. For chain 1 S9R, the screen value was 9.97e-05. Work on chain 1 S15G yielded a screen value of 9.21e-05.

Variants of: B3
Assay: as above
Conditions: with TNKS ANK (TNKS 12 ANK repeats, residues 174-649); bait immobilised on MaxiSorp plates (10 µg), library pre-cleared on GST, 2 h binding at 4 °C, five washes; one round per day, days 1-4; value from days 2 and 3; keep out of graded; scale: average fractional NGS count over selection days 2 and 3
In the case of chain 1 A4E, the screen value is reported as 4.24e-05. Variant chain 1 E8I has a screen value of 6.96e-05. Work on chain 1 E8N yielded a screen value of 0.000167. Work on chain 1 E13D yielded a screen value of 6.42e-05. chain 1 E13F was tested, and the screen value was 1.87e-05. For chain 1 E13G, the screen value was 5.19e-05. chain 1 E13K showed a screen value of 0. Variant chain 1 E13P has a screen value of 3.32e-05. chain 1 E13R showed a screen value of 0. chain 1 E13T showed a screen value of 1.94e-05. With chain 1 E13W the screen value was 1.87e-05. Variant chain 1 G11L has a screen value of 0. For chain 1 G11N, the screen value was 5.06e-05. With chain 1 H14D the screen value was 0. chain 1 H14P gave a screen value of 6.39e-05. For chain 1 H14T, the screen value was 3.21e-05. For chain 1 H14Y, the screen value was 8.4e-05. For chain 1 L1R, the screen value was 2.19e-05. Work on chain 1 P9G yielded a screen value of 0. chain 1 P9I showed a screen value of 6.68e-05. With chain 1 P9L the screen value was 0. With chain 1 P9S the screen value was 0. For chain 1 P9V, the screen value was 9.22e-05. chain 1 P9Y was tested, and the screen value was 0. Work on chain 1 Q2F yielded a screen value of 3.49e-05. For chain 1 Q2R, the screen value was 0. chain 1 Q3E was tested, and the screen value was 9.57e-05. With chain 1 Q3I the screen value was 0.000108. For chain 1 Q3K, the screen value was 2.25e-05. chain 1 Q3M gave a screen value of 3.03e-05. chain 1 Q3R was tested, and the screen value was 0. chain 1 Q7D gave a screen value of 2.19e-05. For chain 1 Q7E, the screen value was 2.83e-05. chain 1 Q7I showed a screen value of 0.0001. chain 1 Q7R showed a screen value of 0. Variant chain 1 Q7S has a screen value of 0.000105. In the case of chain 1 Q10A, the screen value is reported as 2.19e-05. chain 1 Q10F showed a screen value of 0. Work on chain 1 Q10K yielded a screen value of 0. Variant chain 1 Q10M has a screen value of 4.87e-05. chain 1 Q10P showed a screen value of 6.1e-05. For chain 1 Q10R, the screen value was 3.15e-05. For chain 1 Q10T, the screen value was 3.04e-05. Work on chain 1 Q10V yielded a screen value of 6.99e-05. For chain 1 Q12D, the screen value was 0. Variant chain 1 Q12E has a screen value of 4.24e-05. chain 1 Q12G gave a screen value of 3.04e-05. Variant chain 1 Q12K has a screen value of 5.3e-05. For chain 1 Q12N, the screen value was 2.19e-05. With chain 1 Q12S the screen value was 5.26e-05. For chain 1 Q12T, the screen value was 9.71e-05. For chain 1 Q12V, the screen value was 6.42e-05. In the case of chain 1 Q15K, the screen value is reported as 5.01e-05. Work on chain 1 R6E yielded a screen value of 0. chain 1 R6K showed a screen value of 0. chain 1 R6L was tested, and the screen value was 0. chain 1 R6S showed a screen value of 6.11e-05. In the case of chain 1 T5A, the screen value is reported as 2.97e-05. chain 1 T5E showed a screen value of 5.19e-05. In the case of chain 1 T5K, the screen value is reported as 6.67e-05. Work on chain 1 T5P yielded a screen value of 5.25e-05. In the case of chain 1 T5R, the screen value is reported as 0.

Variants of: B4
Assay: as above
Conditions: with PEX14 Pex14 (PEX14 PEX14, residues 16-84); bait immobilised on MaxiSorp plates (10 µg), library pre-cleared on GST, 2 h binding at 4 °C, five washes; one round per day, days 1-4; value from days 2 and 3; scale: average fractional NGS count over selection days 2 and 3
chain 1 A3D gave a screen value of 0. chain 1 A3E was tested, and the screen value was 7.71e-05. Work on chain 1 A3F yielded a screen value of 0. With chain 1 A3H the screen value was 0.000109. chain 1 A3K showed a screen value of 0.000328. chain 1 A3P gave a screen value of 0.000212. Work on chain 1 A3Q yielded a screen value of 0.000248. Variant chain 1 A3R has a screen value of 0. Work on chain 1 A3S yielded a screen value of 0.000118. In the case of chain 1 A3W, the screen value is reported as 7.47e-05. chain 1 A6E showed a screen value of 0. In the case of chain 1 A6F, the screen value is reported as 0.000385.
